Reference: article PMC13132547

Tests used:
Assay in all cases: cryo-EM structure
[1] = molecular target: D7324-tagged Delta S (soluble SARS-CoV-2 Delta spike, 6P version) (SARS-CoV-2) (UniProt P0DTC2)
[2] = molecular target: His-tagged BA.1 S (soluble SARS-CoV-2 Omicron BA.1 spike, 6P version) (SARS-CoV-2) (UniProt P0DTC2)
[3] = molecular target: StrepII-tagged Wu1 S (soluble SARS-CoV-2 Wuhan-Hu-1 spike, 6P version) (SARS-CoV-2) (UniProt P0DTC2)

D7324-tagged Delta S (soluble SARS-CoV-2 Delta spike, 6P version) (from UniProt P0DTC2 14-1273) (natural protein)
stoichiometry N [1]: 3

His-tagged BA.1 S (soluble SARS-CoV-2 Omicron BA.1 spike, 6P version) (from UniProt P0DTC2 14-1273) (natural protein)
stoichiometry N [2]: 3

StrepII-tagged Wu1 S (soluble SARS-CoV-2 Wuhan-Hu-1 spike, 6P version) (from UniProt P0DTC2 14-1273) (natural protein)
stoichiometry N [3]: 3
